Experimental data from PMC5771398, “Structural basis for assembly of the CBF3 kinetochore complex” (The EMBO Journal, 2017).

Target: T1, Cep3-Ctf13-Skp1 core complex (S. cerevisiae, UniProt P40969 1-608; P35203 1-478; P52286 1-194, four phosphorylations (intact mass spectrometry); sites not given)
T1 construct: Cep3, budding yeast, full length; Ctf13, budding yeast, full length; Skp1, budding yeast, full length; Core complex as it stood in size-exclusion chromatography with Ndc10 or the Ndc10 NTD (tag cleaved); also called CBF3 core complex; coreWT; source: S. cerevisiae, co-expressed, purified (Strep-Trap, heparin, TEV, anion exchange, SEC); not shown: double-StrepTactin tag, C-terminal, cleaved; …
T1 sequence (P40969 whole entry, chain 1 of 3): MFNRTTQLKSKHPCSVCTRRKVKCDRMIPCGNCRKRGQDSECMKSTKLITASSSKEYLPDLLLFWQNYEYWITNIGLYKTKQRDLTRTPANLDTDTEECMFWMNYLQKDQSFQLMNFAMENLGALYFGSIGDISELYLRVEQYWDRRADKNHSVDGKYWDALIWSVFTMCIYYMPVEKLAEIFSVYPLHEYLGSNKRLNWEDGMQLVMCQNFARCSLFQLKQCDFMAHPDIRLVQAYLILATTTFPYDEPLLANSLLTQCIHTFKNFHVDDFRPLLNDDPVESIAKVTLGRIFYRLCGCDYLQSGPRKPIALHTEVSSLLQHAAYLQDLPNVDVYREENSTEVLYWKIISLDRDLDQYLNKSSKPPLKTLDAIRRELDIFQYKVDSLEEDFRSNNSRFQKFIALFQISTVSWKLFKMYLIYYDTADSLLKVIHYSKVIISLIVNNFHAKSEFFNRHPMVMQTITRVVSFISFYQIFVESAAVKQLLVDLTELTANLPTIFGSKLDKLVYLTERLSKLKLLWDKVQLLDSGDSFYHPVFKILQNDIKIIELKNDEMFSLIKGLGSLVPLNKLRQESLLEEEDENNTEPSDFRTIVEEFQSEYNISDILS
T1 sequence (P35203 whole entry, chain 2 of 3): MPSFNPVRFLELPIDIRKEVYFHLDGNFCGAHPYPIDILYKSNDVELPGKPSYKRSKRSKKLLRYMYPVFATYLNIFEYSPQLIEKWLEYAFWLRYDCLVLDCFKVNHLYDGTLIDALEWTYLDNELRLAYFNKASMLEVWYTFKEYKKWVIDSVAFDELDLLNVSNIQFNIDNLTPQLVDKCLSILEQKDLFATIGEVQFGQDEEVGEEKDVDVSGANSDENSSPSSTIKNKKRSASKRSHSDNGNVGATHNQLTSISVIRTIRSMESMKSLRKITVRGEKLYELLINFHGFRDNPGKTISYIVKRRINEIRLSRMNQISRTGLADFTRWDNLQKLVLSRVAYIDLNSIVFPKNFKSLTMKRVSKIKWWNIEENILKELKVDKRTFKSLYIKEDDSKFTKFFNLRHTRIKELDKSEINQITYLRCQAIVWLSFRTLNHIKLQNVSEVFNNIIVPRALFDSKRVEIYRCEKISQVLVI
T1 sequence (P52286 whole entry, chain 3 of 3): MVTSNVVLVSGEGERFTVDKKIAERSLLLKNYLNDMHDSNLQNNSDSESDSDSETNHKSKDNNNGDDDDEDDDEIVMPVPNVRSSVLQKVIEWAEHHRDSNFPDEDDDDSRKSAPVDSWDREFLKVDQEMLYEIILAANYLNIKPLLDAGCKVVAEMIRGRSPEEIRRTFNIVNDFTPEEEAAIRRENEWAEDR
Test: SEC; Superose 6 in 10 mM HEPES, 300 mM NaCl, 1 mM DTT; core and Ndc10 separated on heparin and combined, tag cleaved; stoichiometry judged by band intensities on SDS-PAGE/Coomassie
Details: both partners purified

B1: Ndc10 (natural protein, S. cerevisiae, UniProt P32504 1-956, looked up)
chain: MRSSILFLLKLMKIMDVQQQQEAMSSEDRFQELVDSLKPRTAHQYKTYYTKYIQWCQLNQIIPTPEDNSVNSVPYKDLPISAELIHWFLLDTLITDDKPGEKREETEDLDEEEENSFKIATLKKIIGSLNFLSKLCKVHENPNANIDTKYLESVTKLHTHWIDSQKAITTNETNNTNTQVLCPPLLKVSLNLWNPETNHLSEKFFKTCSEKLRFLVDFQLRSYLNLSFEERSKIRFGSLKLGKRDRDAIIYHKVTHSAEKKDTPGHHQLLALLPQDCPFICPQTTLAAYLYLRFYGIPSVSKGDGFPNLNADENGSLLQDIPILRGKSLTTYPREETFSNYYTTVFRYCHLPYKRREYFNKCNLVYPTWDEDTFRTFFNEENHGNWLEQPEAFAFPDKIPFDFKKIMNFKSPYTSYSTNAKKDPFPPPKDLLVQIFPEIDEYKRHDYEGLSQNSRDFLDLMEVLRERFLSNLPWIYKFFPNHDIFQDPIFGNSDFQSYFNDKTIHSKGSPILSFDILPGFNKIYKNKTNFYSLLIERPSQLTFASSHNPDTHPTQKQESEGPLQMSQLDTTQLNELLKQQSFEYVQFQTLSNFQILLSVFNKIFEKLEMKKSSRGYILHQLNLFKITLDERIKKSKIDDADKFIRDNQPIKKEENIVNEDGPNTSRRTKRPKQIRLLSIADSSDESSTEDSNVFKKDGESIEDGAYGENEDENDSEMQEQLKSMINELINSKISTFLRDQMDQFELKINALLDKILEEKVTRIIEQKLGSHTGKFSTLKRPQLYMTEEHNVGFDMEVPKKLRTSGKYAETVKDNDDHQAMSTTASPSPEQDQEAKSYTDEQEFMLDKSIDSIEGIILEWFTPNAKYANQCVHSMNKSGNKSWRANCEALYKERKSIVEFYIYLVNHESLDRYKAVDICEKLRDQNEGSFSRLAKFLRKWRHDHQNSFDGLLVYLSN
notes: synthetic gene codon-optimised for S. cerevisiae; also called full-length Ndc10; source: S. cerevisiae, co-expressed with the other CBF3 subunits and Sgt1; in lysate (pull-down) and purified (heparin, anion exchange, SEC)
  stoichiometry N: 2
